Consider 2 molecules from patent publication US20220251176A1 (GREEN CROSS, published 2022).

To fix the notation:
B2: recombinant human CD3 (receptor)
chain: DGNEEMGGITQTPYKVSISGTTVILTCPQYPGSEILWQHNDKNIGGDEDDKNIGSDEDHLSLKEFSELEQSGYYVCYPRGSKPEDANFYLYLRARVCENCMEMD

In the assay “recombinant human CD3” the target is B2. As to the kind of experiment: BLI (Octet), antigen immobilised on APS sensor, antibody 6.25-100 nM. For orientation: Biolayer interferometry detects binding as a change in optical thickness at a sensor tip.
The target in a further assay is T1, recombinant human MSLN (human, UniProt Q13421 296-580, limits assumed).
T1 construct: Immobilised on an APS sensor in the Octet assay; also called mesothelin
T1 sequence (Q13421 other isoform, or with tags, fused parts or gaps limits assumed): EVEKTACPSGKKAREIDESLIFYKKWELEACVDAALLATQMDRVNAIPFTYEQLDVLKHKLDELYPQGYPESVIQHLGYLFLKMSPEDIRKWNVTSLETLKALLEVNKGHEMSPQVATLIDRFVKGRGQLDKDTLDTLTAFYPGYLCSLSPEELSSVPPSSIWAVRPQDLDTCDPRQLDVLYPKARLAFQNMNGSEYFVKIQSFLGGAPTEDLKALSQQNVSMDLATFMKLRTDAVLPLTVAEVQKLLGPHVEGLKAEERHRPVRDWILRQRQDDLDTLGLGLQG
The assay is described as above.

For assay [1], the target named is T2, MSLN on H226 and AsPC-1 cancer cell lines (UniProt Q13421 296-598).
T2 construct: whole, on cells; The same cells also overexpress EGFR; also called MSLN-expressing tumor cells; MSLN+ tumor cells
T2 sequence (Q13421 other isoform, or with tags, fused parts or gaps limits assumed): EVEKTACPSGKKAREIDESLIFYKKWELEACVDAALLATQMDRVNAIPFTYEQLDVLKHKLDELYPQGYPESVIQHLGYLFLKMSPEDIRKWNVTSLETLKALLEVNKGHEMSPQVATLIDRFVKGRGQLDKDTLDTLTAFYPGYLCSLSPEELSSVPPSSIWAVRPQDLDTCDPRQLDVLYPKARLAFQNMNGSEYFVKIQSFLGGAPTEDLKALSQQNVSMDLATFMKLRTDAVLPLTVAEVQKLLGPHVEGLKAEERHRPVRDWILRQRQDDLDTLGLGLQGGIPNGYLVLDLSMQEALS
As to the kind of experiment: flow cytometry on H226 cells (overexpress MSLN and EGFR), PE anti-human IgG. A general note: Flow cytometry measures light scatter and fluorescence of single cells or particles in a stream.
Procedure: (§1) Then, light was blocked for one and a half hours and incubation was performed at 4° C. Subsequently, 200 μl of FACS buffer was added thereto. Centrifugation was performed at 2,000 rpm for 3 minutes at 4° C., and then the supernatant was removed.
(§2) Then, light was blocked for 30 minutes and incubation was performed at 4° C. Subsequently, 200 μl of FACS buffer was added thereto, and centrifugation was performed at 2,000 rpm for 3 minutes at 4° C.; and then the supernatant was removed to obtain a sample.
(§3) 200 μl of BD CYTOFIX™ was added to the sample so that the cells were suspended, and analysis was performed by BD LSR FORTESSA™.

The target in assay [2] is T2, MSLN on H226 and AsPC-1 cancer cell …. As to the kind of experiment: cell-based or functional assay.
The target of assay [3] is T3, CD3 on Jurkat E6-1 T cell line (UniProt P07766 23-207).
T3 construct: whole, on cells; On the cells CD3 is the whole complex
Put plainly: flow cytometry on Jurkat E6-1 cells (express CD3), PE anti-human IgG.
Procedure: as §1, §2, §3

Assay [4] addresses T2, MSLN on H226 and AsPC-1 cancer cell …. Put plainly: flow cytometry on AsPC-1 cells (overexpress MSLN and EGFR), PE anti-human IgG.
Procedure: as §1, §2, §3
In assay [5] the target is T4, anti-EGFR/anti-MSLN/anti-CD3 trispecific antibody Cetuximab/HMI323-A15.
T4 construct: Trispecific antibody: knob-into-hole heterodimer of two single chains, 2+1 IgG format
As to the kind of experiment: BLI (Octet), antigen immobilised on APS sensor, antibody 6.25-100 nM.

A word on the Kd: it is the concentration at which binding is half-saturated. A word on the koff: it is the rate constant with which the complex falls apart. What is called kon is the second-order rate constant of association. The EC50 is the concentration giving half of the maximal effect. Read a low EC50 as an effect from little substance.

B1: anti-MSLN/anti-CD3 bispecific antibody HMI323/HMI323-A15 (bispecific antibody, human IgG1, kappa, lambda, L234A L235A)
chain 1: DIQMTQSPSSLSASVGDRVTITCRASQDVSTAVAWYQQKPGKAPKLLIYSASYRYPGVPSRFSGSGSGTDFTLTISSLQPEDFATYYCQQHYSTPWTFGGGTKLEIKRTVAAPSVFIFPPSDEQLKSGTASVVCLLNNFYPREAKVQWKVDNALQSGNSQESVTEQDSKDSTYSLSSTLTLSKADYEKHKVYACEVTHQGLSSPVTKSFNRGECSGGGSGGGSEGGGSEGGGSEGGGSEGGGSGGGSGEVQLVQSGAEVKKPGTSVKVSCKASGYSFTSYFIQWVRQAPGQGLEWIGWIFPGSGNTKYSQKFQGRVTITRDTSTSTAYMELSSLRSEDTAVYYCARSGGYQYYFDYWGQGTLVTVSSASTKGPSVFPLAPSSKSTSGGTAALGCLVKDYFPEPVTVSWNSGALTSGVHTFPAVLQSSGLYSLSSVVTVPSSSLGTQTYICNVNHKPSNTKVDKKVGGGGSGGGGSGGGGSQAVVTQEPSLTVSPGGTVTLTCRSSTGAVTTSNYANWVQQKPGQAPRGLIGGTNKRAPWTPARFSGSLLGGKAALTLSGAQPEDEAEYYCALWYSNLWVFGGGTKLTVLGQPKANPTVTLFPPSSEELQANKATLVCLISDFYPGAVTVAWKADGSPVKAGVETTKPSKQSNNKYAASSYLSLTPEQWKSHRSYSCQVTHEGSTVEKTVAPTECSGGGSGGGSEGGGSEGGGSEGGGSEGGGSGGGSGEVQLVESGGGLVQPGGSLKLSCAASGFTFNTYAMNWVRQASGKGLEWVGRIRSKYNNYATYYADSVKDRFTISRDDSKNTAYLQMNSLKTEDTAVYYCVRHGNFGNSYVSWFAYWGQGTLVTVSSASTKGPSVFPLAPSSKSTSGGTAALGCLVKDYFPEPVTVSWNSGALTSGVHTFPAVLQSSGLYSLSSVVTVPSSSLGTQTYICNVNHKPSNTKVDKKVEPKSCDKTHTCPPCPAPEAAGGPSVFLFPPKPKDTLMISRTPEVTCVVVDVSHEDPEVKFNWYVDGVEVHNAKTKPREEQYNSTYRVVSVLTVLHQDWLNGKEYKCKVSNKALPAPIEKTISKAKGQPREPRVYTLPPCRDELTKNQVSLTCLVKGFYPSDIAVEWESNGQPENNYKTTPPVLVSDGSFTLYSKLTVDKSRWQQGNVFSCSVMHEALHNHYTQKSLSLSPG
chain 2: DIQMTQSPSSLSASVGDRVTITCRASQDVSTAVAWYQQKPGKAPKLLIYSASYRYPGVPSRFSGSGSGTDFTLTISSLQPEDFATYYCQQHYSTPWTFGGGTKLEIKRTVAAPSVFIFPPSDEQLKSGTASVVCLLNNFYPREAKVQWKVDNALQSGNSQESVTEQDSKDSTYSLSSTLTLSKADYEKHKVYACEVTHQGLSSPVTKSFNRGECSGGGSGGGSEGGGSEGGGSEGGGSEGGGSGGGSGEVQLVQSGAEVKKPGTSVKVSCKASGYSFTSYFIQWVRQAPGQGLEWIGWIFPGSGNTKYSQKFQGRVTITRDTSTSTAYMELSSLRSEDTAVYYCARSGGYQYYFDYWGQGTLVTVSSASTKGPSVFPLAPSSKSTSGGTAALGCLVKDYFPEPVTVSWNSGALTSGVHTFPAVLQSSGLYSLSSVVTVPSSSLGTQTYICNVNHKPSNTKVDKKVEPKSCDKTHTCPPCPAPEAAGGPSVFLFPPKPKDTLMISRTPEVTCVVVDVSHEDPEVKFNWYVDGVEVHNAKTKPREEQYNSTYRVVSVLTVLHQDWLNGKEYKCKVSNKALPAPIEKTISKAKGQPREPQVCTLPPSRDELTENQVSLTCLVKGFYPSDIAVEWESNGQPENNYKTTPPVLDSDGSFFLYSWLTVDKSRWQQGNVFSCSVMHEALHNHYTQKSLSLSPG
notes: Knob-into-hole heterodimer of two single chains, 2+1 IgG format
For B1, in the assay with recombinant human CD3, the dissociation constant (Kd) was 52.6 nM, the koff amounted to 0.0242 s⁻¹ and the kon worked out at 461000 M⁻¹ s⁻¹. In the assay with recombinant human MSLN, the Kd amounted to 7.79 nM, the koff was determined as 0.000774 s⁻¹ and the on-rate constant (kon) came to 99400 M⁻¹ s⁻¹. In assay [1], the EC50 came out at 6.2 nM. In assay [2], the “IC50 of PBMC-mediated cell killing; AsPC-1; PBMC:target cell 10:1; 24 hr” value worked out at 0.406 nM, the “IC50 of PBMC-mediated cell killing; AsPC-1; PBMC:target cell 10:1; 48 hr” value turned out to be 0.144 nM, the “IC50 of PBMC-mediated cell killing; AsPC-1; PBMC:target cell 20:1; 48 hr” value amounted to 0.0304 nM and the “IC50 of PBMC-mediated cell killing; H226; PBMC:target cell 10:1; 24 hr” value was 0.0844 nM. For the same molecule, in assay [2], the “IC50 of PBMC-mediated cell killing; H226; PBMC:target cell 10:1; 48 hr” value was 0.0503 nM and the “IC50 of PBMC-mediated cell killing; H226; PBMC:target cell 20:1; 48 hr” value was determined as 0.0153 nM. The molecule also gave an EC50 in assay [3] of 58 nM. Besides, the half-maximal effective concentration (EC50) in assay [4] worked out at 4.7 nM.

As to B2, in assay [5], the Kd is 13.5 nM, the koff stood at 0.00625 s⁻¹ and the kon came to 463000 M⁻¹ s⁻¹.
